Experimental data taken from US20170183710.

T1: Anaplastic Lymphoma kinase Artificial Substrate peptide-A (ALAStide-A)
T1 chain: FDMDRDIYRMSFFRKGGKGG

T2: Anaplastic Lymphoma kinase Artificial Substrate peptide-B (ALAStide-B)
T2 chain: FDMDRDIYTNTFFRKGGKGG

T3: YFF peptide
T3 chain: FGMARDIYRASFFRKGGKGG

B1: Csk (protein)
chain: MSAIQAAWPSGTECIAKYNFHGTAEQDLPFCKGDVLTIVAVTKDPNWYKAKNKVGREGIIPANYVQKREGVKAGTKLSLMPWFHGKITREQAERLLYPPETGLFLVRESTNYPGDYTLCVSCDGKVEHYRIMYHASKLSIDEEVYFENLMQLVEHYTSDADGLCTRLIKPKVMEGTVAAQDEFYRSGWALNMKELKLLQTIGKGEFGDVMLGDYRGNKVAVKCIKNDATAQAFLAEASVMTQLRHSNLVQLLGVIVEEKGGLYIVTEYMAKGSLVDYLRSRGRSVLGGDCLLKFSLDVCEAMEYLEGNNFVHRDLAARNVLVSEDNVAKVSDFGLTKEASSTQDTGKLPVKWTAPEALREKKFSTKSDVWSFGILLWEIYSFGRVPYPRIPLKDVVPRVEKGYKMDAPDGCPPAVYEVMKNCWHLDAAMRPSFLQLREQLEHIKTHELHL
B2: Lyn (protein)
chain: MGCIKSKGKDSLSDDGVDLKTQPVRNTERTIYVRDPTSNKQQRPVPESQLLPGQRFQTKDPEEQGDIVVALYPYDGIHPDDLSFKKGEKMKVLEEHGEWWKAKSLLTKKEGFIPSNYVAKLNTLETEEWFFKDITRKDAERQLLAPGNSAGAFLIRESETLKGSFSLSVRDFDPVHGDVIKHYKIRSLDNGGYYISPRITFPCISDMIKHYQKQADGLCRRLEKACISPKPQKPWDKDAWEIPRESIKLVKRLGAGQFGEVWMGYYNNSTKVAVKTLKPGTMSVQAFLEEANLMKTLQHDKLVRLYAVVTREEPIYIITEYMAKGSLLDFLKSDEGGKVLLPKLIDFSAQIAEGMAYIERKNYIHRDLRAANVLVSESLMCKIADFGLARVIEDNEYTAREGAKFPIKWTAPEAINFGCFTIKSDVWSFGILLYEIVTYGKIPYPGRTNADVMTALSQGYRMPRVENCPDELYDIMKMCWKEKAEERPTFDYLQSVLDDFYTATEGQYQQQP
B3: Anaplastic lymphoma kinase (ALK) (protein)
chain: VYRRKHQELQAMQMELQSPEYKLSKLRTSTIMTDYNPNYCFAGKTSSISDLKEVPRKNITLIRGLGHGAFGEVYEGQVSGMPNDPSPLQVAVKTLPEVCSEQDELDFLMEALIISKFNHQNIVRCIGVSLQSLPRFILLELMAGGDLKSFLRETRPRPSQPSSLAMLDLLHVARDIACGCQYLEENHFIHRDIAARNCLLTCPGPGRVAKIGDFGMARDIYRASYYRKGGCAMLPVKWMPPEAFMEGIFTSKTDTWSFGVLLWEIFSLGYMPYPSKSNQEVLEFVTSGGRMDPPKNCPGPVYRIMTQCWQHQPEDRPNFAIILERIEYCTQDPDVINTALPIEYGPLVEEEEKVPVRPKDPEGVPPLLVSQQAKREEERSPAAPPPLPTTSSGKAAKKPTAAEISVRVPRGPAVEGGHVNMAFSQSNPPSELHKVHGSRNKPTSLWNPTYGSWFTEKPTKKNNPIAKKEPHDRGNLGLEGSCTVPPNVATGRLPGASLLLEPSSLTANMKEVPLFRLRHFPCGNVNYGYQQQGLPLEAATAPGAGHYEDTILKSKNSMNQPGP

Tests used:
[1] = biological target: T1, Anaplastic Lymphoma kinase Artificial …
[2] = biological target: T2, Anaplastic Lymphoma kinase Artificial …
YFF peptide = biological target: T3, YFF peptide

Protein	phosphorylation by kinase in vitro, ELISA [1]	phosphorylation by kinase in vitro, ELISA [2]	phosphorylation by kinase in vitro, ELISA (YFF peptide)	phosphorylation by ALK kinase in vitro, ELISA [1]	phosphorylation by ALK kinase in vitro, ELISA [2]	phosphorylation by ALK kinase in vitro, ELISA (YFF peptide)
B1	The ALK-specific biosensors are not phosphorylated by other representative cellular kinases	The ALK-specific biosensors are not phosphorylated by other representative cellular kinases	shows the lack of affinity of these the two ALK-specific biosensors and YFF peptide by Lyn, Abl, and Csk			
B2	The ALK-specific biosensors are not phosphorylated by other representative cellular kinases	The ALK-specific biosensors are not phosphorylated by other representative cellular kinases	shows the lack of affinity of these the two ALK-specific biosensors and YFF peptide by Lyn, Abl, and Csk			
B3				ALAStide-A has higher phosphorylation activity than YFF and ALAStide-B	ALAStide-B has comparable phosphorylation level with YFF peptide	YFF peptide is used as a reference to compare the phosphorylation activity of ALAStide-A and ALAStide-B
